Series [1] deals with the molecule itself. Kind of series: not stated; oligomeric state of the UVR8 mutants without UV-B; method not given; UVR8 lysis buffer (150 mM NaCl, 25 mM Tris, pH 8.0), room temperature.
Series [2] concerns the molecule itself. The series can be described thus: SEC; Superdex200 size column run after the sub-nanosecond TCSPC measurements (290 nm pulsed LED, 10 uM samples); dimer to monomers. A general note: In gel filtration, larger molecules generally elute earlier.

B1: UVR8 mutant 6Wd + 3Wp (all four tryptophans of the 4Wc pyramid center changed to phenylalanine, on the W400F template) (receptor, Arabidopsis thaliana, UniProt Q9FN03 1-440, looked up)
chain: MAEDMAADEVTAPPRKVLIISAGASHSVALLSGDIVCSWGRGEDGQLGHGDAEDRPSPTQLSALDGHQIVSVTCGADHTVAYSQSGMEVYSWGFGDFGRLGHGNSSDLFTPLPIKALHGIRIKQIACGDSHCLAVTMEGEVQSWGRNQNGQLGLGDTEDSLVPQKIQAFEGIRIKMVAAGAEHTAAVTEDGDLYGWGWGRYGNLGLGDRTDRLVPERVTSTGGEKMSMVACGFRHTISVSYSGALYTYGWSKYGQLGHGDLEDHLIPHKLEALSNSFISQISGGFRHTMALTSDGKLYGWGWNKFGQVGVGNNLDQCSPVQVRFPDDQKVVQVSCGFRHTLAVTERNNVFAWGRGTNGQLGIGESVDRNFPKIIEALSVDGASGQHIESSNIDPSSGKSFVSPAERYAVVPDETGLTDGSSKGNGGDISVPQTDVKRVRI
notes: UVR8, Arabidopsis thaliana; W400F template
By stoichiometry N is commonly meant a count of units in the complex or per binding partner. Turning to B1, in series [1], the “stoichiometry N” value was 2.

B2: Arabidopsis thaliana UVR8 (UV … LOCUS 8) W400F, redefined as wild type (WT) (receptor, UniProt Q9FN03 1-440, looked up)
chain: MAEDMAADEVTAPPRKVLIISAGASHSVALLSGDIVCSWGRGEDGQLGHGDAEDRPSPTQLSALDGHQIVSVTCGADHTVAYSQSGMEVYSWGWGDFGRLGHGNSSDLFTPLPIKALHGIRIKQIACGDSHCLAVTMEGEVQSWGRNQNGQLGLGDTEDSLVPQKIQAFEGIRIKMVAAGAEHTAAVTEDGDLYGWGWGRYGNLGLGDRTDRLVPERVTSTGGEKMSMVACGWRHTISVSYSGALYTYGWSKYGQLGHGDLEDHLIPHKLEALSNSFISQISGGWRHTMALTSDGKLYGWGWNKFGQVGVGNNLDQCSPVQVRFPDDQKVVQVSCGWRHTLAVTERNNVFAWGRGTNGQLGIGESVDRNFPKIIEALSVDGASGQHIESSNIDPSSGKSFVSPAERYAVVPDETGLTDGSSKGNGGDISVPQTDVKRVRI
notes: UVR8, Arabidopsis thaliana; the construct holds residue 400 (W400F); also called UVR8 WT
Regarding B2, the binding result in series [2] was “binds”.

The values above are taken from PMC7455749, “A leap in quantum efficiency through light harvesting in photoreceptor UVR8” (Nature Communications, 2020).
